Here are results for two molecules from US20200282017A1 (CLEVELAND CLINIC FOUNDATION, published 2020).

The target in experiment [1] is T1, E. coli (K12) FimH, wild type, on the surface of E. coli (Escherichia coli (K12), UniProt P08191 22-300).
T1 construct: whole, on cells; also called FimH-WT; fimbrial protein H
Kind of experiment: flow cytometry of FimH+ or FimH- E. coli (K12) treated with Box A protein and stained with anti-HIS antibody. (A flow cytometer gives signals particle by particle.)

The target of experiment [2] is T1, E. coli (K12) FimH, wild type, on the …. Kind of experiment: immunofluorescence microscopy of E. coli +/- FimH exposed to recombinant HMGB1, stained with anti-HMGB1 antibody.

T1 sequence (P08191 22-300): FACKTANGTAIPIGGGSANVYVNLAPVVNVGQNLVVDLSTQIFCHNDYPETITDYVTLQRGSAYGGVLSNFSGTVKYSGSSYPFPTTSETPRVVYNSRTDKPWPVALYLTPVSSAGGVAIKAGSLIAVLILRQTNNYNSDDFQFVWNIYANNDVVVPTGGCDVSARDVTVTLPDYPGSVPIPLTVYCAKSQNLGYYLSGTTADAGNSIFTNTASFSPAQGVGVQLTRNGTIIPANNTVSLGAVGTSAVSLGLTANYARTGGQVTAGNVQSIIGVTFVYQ

B1: Box A protein, truncation mutant composed of aa 2-97 of HMGB1 (other)
chain: GKGDPKKPRGKMSSYAFFVQTCREEHKKKHPDASVNFSEFSKKCSERWKTMSAKEKGKFEDMAKADKARYEREMKTYIPPKGETKKKFKDPNAPKR
notes: The position of the His tag is unknown; also called Box A from HMGB1; not shown: His tag implied by detection with anti-HIS antibody
As for B1, the binding result in experiment [1] is on record as “binds”.

B2: High mobility group box 1 (HMGB1), recombinant human HMGB1 produced in mammalian cells (other)
chain: MGKGDPKKPRGKMSSYAFFVQTCREEHKKKHPDASVNFSEFSKKCSERWKTMSAKEKGKFEDMAKADKARYEREMKTYIPPKGETKKKFKDPNAPKRPPSAFFLFCSEYRPKIKGEHPGLSIGDVAKKLGEMWNNTAADDKQPYEKKAAKLKEKYEKDIAAYRAKGKPDAAKKGVVKAEKSKKKKEEEEDEEDEEDEEEEEDEEDEDEEEDDDDE
notes: also called recombinant HMGB1; full-length HMGB1 protein
Regarding B2, the binding result in experiment [2] is “binds”.
